Data reported in article PMC9814641, “Microbial rhodoquinone biosynthesis proceeds via an atypical RquA-catalyzed amino transfer from S-adenosyl-L-methionine to ubiquinone” (Communications Chemistry, 2022).

How the values were obtained:
RquA = molecular target: T1, RquA (Rhodospirillum rubrum, UniProt Q2RPC3); experiment: intrinsic tryptophan fluorescence titration, one-site fit; also Michaelis-Menten kinetics (apparent Km […] with UQ3 and Mn2+); type: binding
T1 construct: gene Rru_A3227

[1] = molecular target: RquA (TEV-cleaved from MBP-RquA) (R. rubrum); experiment: SEC; calibrated HiLoad 16/60 Superdex 200; TRIS (20 mM), NaCl (200 mM), TCEP (1 mM), 0.1% Brij-35, pH 8.0; mass estimated from the elution volume
[2] = substrate: COC1=C(OC)C(=O)C(C/C=C(\C)CC/C=C(\C)CCC=C(C)C)=C(C)C1=O; experiment: LC-MS enzyme assay of conversion to RQ3, Michaelis-Menten kinetics (apparent Km); type: biochemical, Rhodospirillum rubrum; conditions: Mn2+; SAM (co-substrate)

In the case of `C[S+](CC[C@H](N)C(=O)[O-])C[C@H]1O[C@@H](n2cnc3c(N)ncnc32)[C@H](O)[C@@H]1O` (stereo partly drawn) [compound 3, S-adenosyl-L-methionine], the Kd (RquA) is reported as 2220 ± 1020 µM.

“RquA (TEV-cleaved from MBP-RquA) (enzyme)” showed a stoichiometry N [1] of 2.

B1: RquA (Rhodospirillum rubrum ATCC 11170) (protein)
chain: MTKHQGAVRPVGPEESAFPASQSFSETGPVVADPIKPLPAYLQETYTWAYLDPRNVEWLDHEIVVNAILWGNMTRLMATAFKEFEPGQEVLQPACVYGPFSRHLAERLGPEGYLEVHDVAPVQIHHTRRKVEGLPQVTLRRADAADPLDRDFDGVCCFFLLHEVPDHVKSKIVDNMLSAVRPGGKVVFVDYHRYAALHPLRPIMAFVFRTLEPFAWGLCTREISDFASDAGSFTWRKETYFGGLYQKVVAERRA
notes: MBP-RquA
With B1 the Km [2] was 0.155 ± 0.028 µM.
